Assay [1] has as its target T1, A/South Carolina/1/1918 (H1N1) hemagglutinin ectodomain (Influenza A virus A/South …).
The target in assay [2] is T1, A/South Carolina/1/1918 (H1N1) …. The source holds these as a separate data set.
Assay [3] shares this target. This is another data set of the same source.
Assay [4] shares this target. This is another data set of the same source.

Read-outs that look alike come from different tables or passages of the source.

A word on the Kd: it is the concentration at which binding is half-saturated. Higher therefore signals weaker binding.

B1: HB36.1 (Asp47Ser) (designed binder)
chain: MSNAMDGQQLNRLLLEWIGAWDPFGLGKDAYDVEAEAVLQAVYETESAFDLAMRIMWIYAFAFNRPIPFPHAQKLARRLLELKQAASSPLPLE
Consider B1, for which the Kd in assay [1] was 2 to 5 nM; in assay [3], 5 nM. Besides, the “fold increase in binding affinity against HB36” value in assay [2] is roughly 40 fold.

B2: HB80.1 (Met26Thr, Asn36Lys) (designed binder)
chain: MASTRGSGRPWDFSENLAFELALAFTNKDTPDRWAKVAQYVSGRTPEEVKKHYEILVEDIKYIESGKVPFPNYRTTGGNMKTDEKRFRNLKIRLE
For the molecule B2, the Kd in assay [4] and in assay [3] was 7.5 nM each time.

For the origin of these results see US20150038408A1 (University of Washington, published 2015).
